# Reference: patent US7629169B2, “Methods for the production of platelet-derived growth factor-responsive neural precursor cells” (Stem Cell Therapeutics Corp., priority 2004, dated 2009)
# Legend:
# [1] = test system: PDGF-responsive neural precursors (PRPs) from dissociated E14 MGE/LGE; assay: Primary neurosphere generation from dissociated E14 ganglionic eminences; type: cell-based, mouse; conditions: for neurosphere size / number of neurospheres produced: neurotrophin in the presence of PDGF
# Description: Cell culture. The culture medium (MHM) was composed of DMEM/F-12 (1:1) including HEPES buffer (5 mM), glucose (0.6%), sodium bicarbonate (3 mM), glutamine (2 mM), insulin (25 μg/ml), transferrin (100 μg/ml), progesterone (20 nM), putrescine (10 μM), and sodium selenite (30 nM; all from Sigma, St. Louis, Mo., except glutamine from Invitrogen, Carlsbad, Calif.). The lateral, medial, or both ganglionic eminences (LGE, MGE or both) were removed from Embryonic Day 14 (E14) mouse embryos and mechanically dissociated with a fire-polished Pasteur pipette in MHM. Cells were plated at a density of […] unless otherwise indicated.
# For neurosphere generation, PDGF-AA (100 ng/ml; Peprotech, Rocky Hill, N.J.), PDGF-BB (100 ng/ml; Peprotech), EGF (20 ng/ml; Peprotech), FGF2 (20 ng/ml; R&D [Minneapolis, Minn.])+heparan sulfate (2 μg/ml; HS; R&D), SHH (2 ug/ml; R&D), cyclopamine (5 μM; Toronto Research Chemicals, North York, Ontario), and/or DMSO (0.1%; carrier) was added to the MHM. MHM used to generate neurospheres also contained 2% B27 (Invitrogen).
# […] is one of the earliest markers of OLPs, and signaling by PDGF-AA is required for the generation of most oligodendrocytes (Fruttiger et al., Development 126:457 (1999)). Increasing concentrations of PDGF-AA were used to determine whether stimulation of dissociated E14 medial and lateral ganglionic eminences. (MGE and LGE, respectively) results in generation of neurospheres. The neurosphere assay was used because manipulation of primary cells is minimal compared to the immunopanning procedures used to isolate O-2A progenitors.
# The effect of brain-derived neurotrophic factor (BDNF), neurotrophin-3 (NT-3), and nerve growth factor (NGF) on PRPs was determined. Cells were cultured as previously reported (Chojnacki et al., J Neurosci 24(48):10888 2004) in the presence of various combinations of PDGF, brain-derived neurotrophic factor (BDNF), NT-3, nerve growth factor (NGF), and the effects on neurosphere generation characterized. MHM is the defined medium used in cultures without growth factor.
# [2] = test system: PDGFRα-labeled cells (PRPs); assay: PDGFRα and Tunel staining of dissociated primary cells, 24 hours; type: cell-based
# Description: Dissociated primary cells were cultured in 24-well plates with or without NT-3 for 24 hours, stained for PDGFRα and Tunel, and the number of labeled cells counted.
# [3] = test system: PDGF-generated neurospheres; assay: Differentiation of primary PDGF-AA-generated neurospheres, immunocytochemistry; type: cell-based, mouse
Molecule,generation of neurospheres by timing of treatment ([1]; initial 24 hour NT-3 vs exposure after first 24 hours),neurosphere size [1],number of neurospheres produced [1],"Tunel and PDGFRα co-labeled cells ([2]; with or without NT-3, 24 hours)","PDGFRα-labeled cells ([2]; with vs without NT-3, 24 hours)",GFAP-immunoreactive cells (astrocytes) ([3]; 2 DIV differentiation),OLIG2 / O4 expression ([3]; 6 DIV PDGF-generated neurospheres differentiated 2 DIV)
"NT-3: neurotrophin-3 (protein, UniProt P20783 139-257, looked up) Neurotrophin-3: YAEHKSHRGEYSVCDSESLWVTDKSSAIDIRGHQVTVLGEIKTGNSPVKQYFYETRCKEARPVKNGCRGIDDKHWNSQCKTSQTYVRALTSENNKLVGWRWIRIDTSCVCALSRKIGRT",more effective at promoting the generation of neurospheres than continued exposure to NT-3 after the first 24 hours,promote the generation of larger neurospheres,more neurospheres are produced,no Tunel and PDGFRα co-labeled cells were observed,more PDGFRα-labeled cells,–,–
"BDNF: brain-derived neurotrophic factor (protein, UniProt P23560 19-247, looked up) Neurotrophic factor BDNF …: APMKEANIRGQGGLAYPGVRTHGTLESVNGPKAGSRGLTSLADTFEHVIEELLDEDQKVRPNEENNKDADLYTSRVMLSSQVPLEPPLLFLLEEYKNYLDAANMSMRVRRHSDPARRGELSVCDSISEWVTAADKKTAVDMSGGTVTVLEKVPVSKGQLKQYFYETKCNPMGYTKEGCRGIDKRHWNSQCRTTQSYVRALTMDSKKRIGWRFIRIDTSCVCTLTIKRGR",–,promote the generation of larger neurospheres,more neurospheres are produced,–,–,–,–
"CNTF: ciliary neurotrophic factor (protein, UniProt P26441 1-200, looked up) Ciliary neurotrophic factor: MAFTEHSPLTPHRRDLCSRSIWLARKIRSDLTALTESYVKHQGLNKNINLDSADGMPVASTDQWSELTEAERLQENLQAYRTFHVLLARLLEDQQVHFTPTEGDFHQAIHTLLLQVAAFAYQIEELMILLEYKIPRNEADGMPINVGDGGLFEKKLWGLKVLQELSQWTVRSIHDLRFISSHQTGIPARGSHYIANNKKM",–,–,–,–,–,did not induce GFAP expression,no effect on OLIG2 or O4 expression
